Measured values reported in patent publication US20140193432A1 (LIVTECH, published 2014).
Changes are numbered by the printed parent chain. Names may count otherwise.

B1: mouse-human chimeric BA-1-3D IgG1/κ antibody (ChBA-1-3D) (antibody, V domains shown)
VH: QVQLQQSGPELVRPGVSVKISCKGSGYTFTDYAMHWVKQSHAKSLEWIGVISTYYGNTNYNQKFKGKATMTVDKSSSTAYMELARLTSEDSAIYYCARGGLREYYYAMDYWGQGTSVTVSS
VL: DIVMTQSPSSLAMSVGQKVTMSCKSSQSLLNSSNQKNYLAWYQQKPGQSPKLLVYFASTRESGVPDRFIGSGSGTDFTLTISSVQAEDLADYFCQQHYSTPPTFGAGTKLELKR
B2: humanized BA-1-3D IgG1/κ antibody (HuBA-1-3D-1) (antibody, V domains shown)
VH: QVQLVQSGAEVKKPGASVKVSCKASGYTFTDYAMHWVRQAPGQGLEWIGVISTYYGNTNYNQKFKGKATMTVDTSTSTAYMELRSLRSDDTAVYYCARGGLREYYYAMDYWGQGTMVTVSS
VL: DIVMTQSPDSLAVSLGERATINCKSSQSLLNSSNQKNYLAWYQQKPGQPPKLLVYFASTRESGVPDRFSGSGSGTDFTLTISSLQAEDVAVYYCQQHYSTPPTFGQGTKLEIKR
B3: HuBA-1-3D-1-A24G/T73K (antibody, human IgG1, kappa, V domains shown)
VH: B2 VH with A24G, T74K
VL: B2 VL
notes: human IgG1/κ; also called A24G/T73K mutant; HuBA-1-3D-A24G/T73K
B4: humanized BA-1-3D IgG1/κ antibody (HuBA-1-3D-2) (antibody, V domains shown)
VH: B2 VH with K67R
VL: B2 VL

What was measured:
[1] = biological target: T1, recombinant protein of the hDlk-1 extracellular region (hDlk-1-His) (human, UniProt P80370 24-303); assay: ELISA third format: hDlk-1-His coated at 0.05 µg/ml, purified antibodies
T1 construct: not shown: His tag
T1 sequence: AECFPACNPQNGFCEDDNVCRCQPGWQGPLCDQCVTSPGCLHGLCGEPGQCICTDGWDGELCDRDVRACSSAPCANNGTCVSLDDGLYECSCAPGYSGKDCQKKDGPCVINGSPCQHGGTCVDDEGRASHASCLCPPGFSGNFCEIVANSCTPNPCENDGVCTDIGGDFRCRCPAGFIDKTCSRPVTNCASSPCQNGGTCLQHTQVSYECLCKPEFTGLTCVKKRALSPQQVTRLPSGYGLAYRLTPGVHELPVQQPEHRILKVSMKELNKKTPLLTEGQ

[2] = biological target: T1, recombinant protein of the hDlk-1 …; assay: ELISA second format: hDlk-1-His coated at 0.5 µg/ml, antibody titrated from 5 µg/ml
Protocol: As a second format of ELISA, hDlk-1-His, which had been diluted with PBS to a concentration of 0.5 μg/ml, was added in an amount of 100 μl/well to a 96-well plate, followed by coating at 4° C. overnight. The plate was washed with a washing buffer, and it was then blocked with a blocking buffer. Thereafter, the plate was washed with a washing buffer again. […] Thereafter, a color reaction was carried out by the same method as described above.

Binder | EC50 [1] | EC50 [2]
B1 | 0.0254 µg/mL | 0.116 µg/mL
B2 |  | 0.148 µg/mL
B3 | 0.0355 µg/mL | 
B4 |  | 0.154 µg/mL
